In publication PMC4188699:
Where “and” joins values, the source holds several entries; their conditions need not be identical. Equal values may be shown once.

Assays:
[1] = biological target: T1, human CSPα L115R, purified from E. coli (human), Q9H3Z4; test: SDS-PAGE of SDS-resistant oligomers; conditions: remark: other sources report otherwise
T1 chain: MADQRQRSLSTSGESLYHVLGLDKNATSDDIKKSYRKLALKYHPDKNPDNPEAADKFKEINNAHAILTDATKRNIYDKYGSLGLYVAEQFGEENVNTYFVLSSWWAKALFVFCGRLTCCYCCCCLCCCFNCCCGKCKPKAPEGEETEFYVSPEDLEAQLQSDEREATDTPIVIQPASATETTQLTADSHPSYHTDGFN

Q9H3Z4 = test: SDS-PAGE of SDS-resistant oligomers; conditions: other: SDS-PAGE of SDS-resistant oligomers

B1: human CSPα L115R, purified from E. coli, Q9H3Z4 1-198 (natural protein)
chain: T1 chain
[1]
  stoichiometry N: 2 and 4

B2: human CSPα L115R, purified from E. coli (protein)
chain: T1 chain
Q9H3Z4
  HMW oligomers, fold versus WT: 58.9 ± 5.9 fold versus WT

B3: human CSPα L116Δ, purified from E. coli (protein)
chain: MADQRQRSLSTSGESLYHVLGLDKNATSDDIKKSYRKLALKYHPDKNPDNPEAADKFKEINNAHAILTDATKRNIYDKYGSLGLYVAEQFGEENVNTYFVLSSWWAKALFVFCGLTCCYCCCCLCCCFNCCCGKCKPKAPEGEETEFYVSPEDLEAQLQSDEREATDTPIVIQPASATETTQLTADSHPSYHTDGFN
Q9H3Z4
  HMW oligomers, fold versus WT: 13.2 ± 3.9 fold versus WT
